{"source": "paper doi:10.1101/2023.05.10.540161", "about": "(bioRxiv, 2023)", "proteins": {"B1": {"name": "His6-CENP-E_(2452-2598) (domain or fragment, human, UniProt Q02224-1 2452-2598, looked up)", "chain": "PYKEEIEDLKMKLVKIDLEKMKNAKEFEKEISATKATVEYQKEVIRLLRENLRRSQQAQDTSVISEHTDPQPSNKPLTCGGGSGIVQNTKALILKSEHIRLEKEISKLKQQNEQLIKQKNELLSNNQHLSNEVKTWKERTLKREAHK", "notes": "CENP-E (kinesin-7), human, residues 2452-2598, from CENP-E transcript variant 1 (NM_001813.2); in the crystal only K2454 to S2506 were seen (likely C-terminal degradation during crystallization); Cloned into pET3aTr; also called minimal corona targeting domain; corona-targeting domain of CENP-E; source: E. coli BL21, purified as previously described (Legal et al., 2020)"}}, "target": "the molecule itself", "test": "crystal structure; His6-CENP-E 2452-2598 at 11 mg/ml, crystallized in 0.2 M potassium citrate tribasic monohydrate, 20% w/v PEG 3350 pH 8.3, room temperature; a CENP-E dimer in the asymmetric unit"}
{"protein": "B1", "values": [{"measurement": "stoichiometry N", "value": 2}]}
